Biological target: HA-tagged GW182 (Drosophila) (UniProt Q8SY33)
Experiment: co-IP; lysate of stable S2 cells expressing HA-GW182 and Myc-HPat, treated with dsRNA against YFP (control), AGO1, NOT1, EDC4 and DCP1, or XRN1; anti-HA antibody (12CA5) cross-linked to protein A sepharose; washes with NET buffer with 300 mM NaCl; quantitative Western blot

UniProt Q8SY33, sequence (Q8SY33 whole entry): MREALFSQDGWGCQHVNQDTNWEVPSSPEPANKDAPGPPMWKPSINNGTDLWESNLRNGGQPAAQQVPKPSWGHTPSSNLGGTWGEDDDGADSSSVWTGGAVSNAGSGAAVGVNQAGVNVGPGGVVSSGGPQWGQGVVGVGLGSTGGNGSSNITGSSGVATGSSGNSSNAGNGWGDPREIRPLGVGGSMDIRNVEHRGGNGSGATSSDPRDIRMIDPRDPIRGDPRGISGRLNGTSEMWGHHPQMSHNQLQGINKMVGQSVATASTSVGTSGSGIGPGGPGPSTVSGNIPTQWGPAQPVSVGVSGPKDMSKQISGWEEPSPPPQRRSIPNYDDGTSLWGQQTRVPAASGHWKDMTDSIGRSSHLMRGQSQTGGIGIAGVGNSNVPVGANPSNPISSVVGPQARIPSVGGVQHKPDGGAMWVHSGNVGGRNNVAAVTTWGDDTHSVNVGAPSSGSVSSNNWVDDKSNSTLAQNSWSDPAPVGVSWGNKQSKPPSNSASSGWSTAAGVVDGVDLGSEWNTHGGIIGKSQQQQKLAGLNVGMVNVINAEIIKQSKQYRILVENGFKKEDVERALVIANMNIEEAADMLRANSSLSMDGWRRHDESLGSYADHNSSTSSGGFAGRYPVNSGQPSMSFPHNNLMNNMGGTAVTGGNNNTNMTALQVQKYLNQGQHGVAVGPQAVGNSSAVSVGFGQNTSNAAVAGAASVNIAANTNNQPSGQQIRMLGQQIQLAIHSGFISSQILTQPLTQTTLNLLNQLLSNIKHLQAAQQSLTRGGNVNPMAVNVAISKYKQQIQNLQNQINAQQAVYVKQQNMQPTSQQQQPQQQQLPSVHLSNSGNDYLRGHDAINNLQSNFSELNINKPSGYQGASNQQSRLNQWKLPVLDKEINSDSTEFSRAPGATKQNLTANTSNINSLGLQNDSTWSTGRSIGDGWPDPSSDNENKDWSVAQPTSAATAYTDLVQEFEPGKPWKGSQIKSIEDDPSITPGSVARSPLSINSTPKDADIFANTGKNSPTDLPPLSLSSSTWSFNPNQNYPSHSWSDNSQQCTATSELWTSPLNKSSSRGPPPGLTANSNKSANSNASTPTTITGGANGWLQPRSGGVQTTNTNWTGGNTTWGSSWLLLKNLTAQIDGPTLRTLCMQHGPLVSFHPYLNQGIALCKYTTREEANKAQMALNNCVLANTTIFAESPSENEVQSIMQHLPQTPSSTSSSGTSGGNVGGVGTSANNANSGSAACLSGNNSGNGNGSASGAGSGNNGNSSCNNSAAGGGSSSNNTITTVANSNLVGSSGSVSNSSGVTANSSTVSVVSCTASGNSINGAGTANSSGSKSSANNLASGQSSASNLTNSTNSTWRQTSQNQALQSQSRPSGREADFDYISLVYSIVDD

Substance: Myc-tagged HPat (natural protein)
- decrease of the Myc-HPat/HA-GW182 ratio in the immunoprecipitate, AGO1 knockdown cells against dsYFP control cells: 84.6%
- decrease of the Myc-HPat/HA-GW182 ratio in the immunoprecipitate, NOT1 knockdown cells against dsYFP control cells: 69.7%

From article PMC3747071
